In assay [1] the target is purified bone alkaline phosphatase from calf intestinal mucosa (AP; Santa Cruz sc-3716 - CAS9001-78-9) (calf) (UniProt P19111). As to the kind of experiment: capture ELISA, coated antibody, AP calibrator at 25 ng/ml, bound enzyme read with pNPP. In general terms: ELISA stands for enzyme-linked immunosorbent assay.
The target is the same in assay [2]. As to the kind of experiment: capture ELISA, coated antibody, AP calibrator at 3.125 ng/ml, bound enzyme read with pNPP.
Assay [3] has the same target. As to the kind of experiment: capture ELISA, coated antibody, AP calibrator at 100 ng/ml, bound enzyme read with pNPP.
Assay [4] shares this target. Nature of the assay: capture ELISA, coated antibody, AP calibrator at 50 ng/ml, bound enzyme read with pNPP.
The target is the same in assay [5]. Nature of the assay: capture ELISA, coated antibody, AP calibrator at 6.25 ng/ml, bound enzyme read with pNPP.
The target is the same in assay [6]. Nature of the assay: capture ELISA, coated antibody, AP calibrator at 12.5 ng/ml, bound enzyme read with pNPP.

The values below come from EP3350599B1.

Chain of UniProt P19111 (P19111 20-506): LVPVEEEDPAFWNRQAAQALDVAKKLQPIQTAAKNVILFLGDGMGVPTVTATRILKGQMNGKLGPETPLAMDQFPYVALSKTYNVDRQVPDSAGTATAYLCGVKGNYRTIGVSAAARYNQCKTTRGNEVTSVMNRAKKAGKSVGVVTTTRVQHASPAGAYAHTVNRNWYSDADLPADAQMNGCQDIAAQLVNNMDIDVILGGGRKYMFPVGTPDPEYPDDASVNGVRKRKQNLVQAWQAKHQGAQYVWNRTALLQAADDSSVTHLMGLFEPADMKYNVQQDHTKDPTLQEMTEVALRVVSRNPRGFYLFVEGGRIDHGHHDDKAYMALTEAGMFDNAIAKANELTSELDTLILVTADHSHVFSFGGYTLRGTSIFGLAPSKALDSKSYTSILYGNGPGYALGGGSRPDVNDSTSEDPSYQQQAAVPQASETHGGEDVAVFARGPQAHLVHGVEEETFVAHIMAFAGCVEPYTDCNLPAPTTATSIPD

As to “anti-BAP polyclonal IgG antibody (produced in sheep) specific for bone alkaline phosphatase (Abcam Ab68716)”, the Abs. 415 nm, Abs. (1) in assay [1] stood at 0.345 Abs. 415 nm; in assay [2], 0.054 Abs. 415 nm; in assay [3], 1.09 Abs. 415 nm; in assay [4] it was 0.628 Abs. 415 nm; in assay [5] it was 0.11 Abs. 415 nm; in assay [6], 0.186 Abs. 415 nm. Besides, the Abs. 415 nm, Abs. (2) came to 0.272 Abs. 415 nm in assay [1]; 0.05 Abs. 415 nm in assay [2]; 1.03 Abs. 415 nm in assay [3]; 0.501 Abs. 415 nm in assay [4]; 0.098 Abs. 415 nm in assay [5]; 0.156 Abs. 415 nm in assay [6]. The Abs. 415 nm, Abs. (3) in assay [1] was 0.294 Abs. 415 nm; in assay [2], 0.066 Abs. 415 nm; in assay [3], 1.12 Abs. 415 nm; in assay [4] it was 0.476 Abs. 415 nm; in assay [5], 0.089 Abs. 415 nm; in assay [6], 0.161 Abs. 415 nm. Also, the Mean Abs. 415 nm in assay [1] was determined as 0.304 Abs. 415 nm; in assay [2], 0.057 Abs. 415 nm; in assay [3], 1.08 Abs. 415 nm; in assay [4], 0.535 Abs. 415 nm; in assay [5], 0.099 Abs. 415 nm; in assay [6] it was 0.168 Abs. 415 nm.
